Reference: patent publication EP4714976A1 (Sunshine Lake Pharma Co., Ltd., dated 2026)
Where a chain is given by its changes, count along the chain named. One block for each binder: values may come before it.

Legend:
FGFR2b on KATO III cells = molecular target: T1, FGFR2b on KATO III cells (human, UniProt P21802-3 22-822); experiment: flow cytometry, KATO III cells
T1 construct: whole, on cells; also called KATO III cells that overexpress FGFR2b

[1] = molecular target: T2, human FGFR2b (Kaixia Biotechnology, catalog number FGR-HM1BB) (human, UniProt P21802-3 22-378); experiment: BLI, antibody on AHC2 sensor
T2 construct: extracellular domain; bought; also called hFGFR2b; human FGFR2b protein
T2 sequence (P21802 other isoform, or with tags, fused parts or gaps): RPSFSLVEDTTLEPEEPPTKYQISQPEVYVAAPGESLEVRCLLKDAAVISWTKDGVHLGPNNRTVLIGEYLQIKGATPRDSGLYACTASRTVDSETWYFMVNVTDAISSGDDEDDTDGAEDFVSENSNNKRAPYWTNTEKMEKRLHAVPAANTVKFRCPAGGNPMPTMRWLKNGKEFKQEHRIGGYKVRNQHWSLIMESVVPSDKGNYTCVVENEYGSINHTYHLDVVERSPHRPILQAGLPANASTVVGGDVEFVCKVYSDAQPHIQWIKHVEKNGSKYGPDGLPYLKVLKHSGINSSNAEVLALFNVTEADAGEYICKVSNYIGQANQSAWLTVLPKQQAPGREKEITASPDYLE

T1 sequence (P21802 other isoform, or with tags, fused parts or gaps): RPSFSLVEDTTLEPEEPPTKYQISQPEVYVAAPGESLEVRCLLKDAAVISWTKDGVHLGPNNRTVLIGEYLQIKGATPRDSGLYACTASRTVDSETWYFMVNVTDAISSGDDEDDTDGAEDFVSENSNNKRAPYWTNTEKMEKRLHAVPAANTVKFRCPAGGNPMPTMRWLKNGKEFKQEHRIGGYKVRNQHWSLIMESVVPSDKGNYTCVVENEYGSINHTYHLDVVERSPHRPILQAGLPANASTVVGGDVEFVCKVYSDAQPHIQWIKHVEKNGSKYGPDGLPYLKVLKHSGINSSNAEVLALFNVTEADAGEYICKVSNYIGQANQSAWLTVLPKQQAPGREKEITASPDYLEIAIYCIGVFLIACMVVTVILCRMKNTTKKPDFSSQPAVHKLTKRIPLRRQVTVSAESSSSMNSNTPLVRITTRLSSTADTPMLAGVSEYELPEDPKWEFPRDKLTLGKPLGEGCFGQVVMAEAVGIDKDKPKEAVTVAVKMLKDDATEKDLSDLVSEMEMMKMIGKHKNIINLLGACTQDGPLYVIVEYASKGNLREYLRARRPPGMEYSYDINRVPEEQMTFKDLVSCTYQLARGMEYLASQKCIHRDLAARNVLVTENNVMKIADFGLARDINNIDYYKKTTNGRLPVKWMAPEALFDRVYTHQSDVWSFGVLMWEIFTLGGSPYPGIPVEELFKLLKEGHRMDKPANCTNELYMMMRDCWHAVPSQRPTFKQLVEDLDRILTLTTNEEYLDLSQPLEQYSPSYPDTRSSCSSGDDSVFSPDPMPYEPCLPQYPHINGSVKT

- EC50 (FGFR2b on KATO III cells): 0.379 µg/mL
- Kd [1]: 8.5 nM
- koff [1]: 0.00241 s⁻¹
- kon [1]: 284000 M⁻¹ s⁻¹
B1: 3H9-VH1-VL1 (antibody, human IgG1, kappa, V domains shown)
VH: QVQLVQSGAEVKKPGASVKVSCKASGYTFTFYNMHWVRQAPGQGLEWIGLIYPDNGDTSYNQKFKGRATLTADTSTSTVYMELSSLRSEDTAVYYCARGGLDYWGQGTTVTVSS
VL: DIQMTQSPSSLSASVGDRVTITCRASENIYSNLAWYQQKPGKSPKLLIYAATNLADGVPSRFSGSGSGTDYTLTISSLQPEDFATYYCQHFWGTPYTFGGGTKVEIKR
notes: humanized IgG1

- EC50 (FGFR2b on KATO III cells): 0.18 µg/mL
- Kd [1]: 3.55 nM
- koff [1]: 0.00179 s⁻¹
- kon [1]: 505000 M⁻¹ s⁻¹
B2: 3H9-VH0-VL1 (antibody, human IgG1, kappa, V domains shown)
VH: B1 VH with I48M
VL: B1 VL
notes: humanized IgG1

- EC50 (FGFR2b on KATO III cells): 0.337 µg/mL
- Kd [1]: 1.9 nM
- koff [1]: 0.000784 s⁻¹
- kon [1]: 412000 M⁻¹ s⁻¹
B3: 3H9-VH2-VL2 (antibody, human IgG1, kappa)
heavy: not shown
light: DIQMTQSPSSLSASVGDRVTITCRASENIYSNLAWYQQKPGKSPKLLVYAATNLADGVPSRFSGSGSGTDYTLTISSLQPEDFATYYCQHFWGTPYTFGGGTKVEIKRTVAAPSVFIFPPSDEQLKSGTASVVCLLNNFYPREAKVQWKVDNALQSGNSQESVTEQDSKDSTYSLSSTLTLSKADYEKHKVYACEVTHQGLSSPVTKSFNRGEC
notes: humanized IgG1

- EC50 (FGFR2b on KATO III cells): 0.332 µg/mL
- Kd [1]: 2.64 nM
- koff [1]: 0.00125 s⁻¹
- kon [1]: 473000 M⁻¹ s⁻¹
B4: 3H9-VH2-VL0 (antibody, human IgG1, kappa, V domains shown)
VH: B1 VH with T30S
VL: B1 VL with S43A, Y71F
notes: humanized IgG1

- EC50 (FGFR2b on KATO III cells): 0.554 µg/mL
- Kd [1]: 0.743 nM
- koff [1]: 0.000399 s⁻¹
- kon [1]: 536000 M⁻¹ s⁻¹
B5: 3H9-VH3-VL3 (antibody, human IgG1, kappa)
heavy: not shown
light: B3 light with V104L
notes: humanized IgG1

- EC50 (FGFR2b on KATO III cells): 0.231 µg/mL
- Kd [1]: 0.709 nM
- koff [1]: 0.000373 s⁻¹
- kon [1]: 526000 M⁻¹ s⁻¹
B6: 3H9-VH3-VL2 (antibody, human IgG1, kappa)
heavy: not shown
light: B3 light
notes: humanized IgG1

- EC50 (FGFR2b on KATO III cells): 0.378 µg/mL
- Kd [1]: 18.5 nM
- koff [1]: 0.00433 s⁻¹
- kon [1]: 234000 M⁻¹ s⁻¹
B7: 3H9-VH1-VL0 (antibody, human IgG1, kappa, V domains shown)
VH: B1 VH
VL: B1 VL with S43A, Y71F
notes: humanized IgG1

- EC50 (FGFR2b on KATO III cells): 0.357 µg/mL
- Kd [1]: 5.06 nM
- koff [1]: 0.00186 s⁻¹
- kon [1]: 367000 M⁻¹ s⁻¹
B8: 3H9-VH0-VL2 (antibody, human IgG1, kappa)
heavy: not shown
light: B3 light
notes: humanized IgG1

- EC50 (FGFR2b on KATO III cells): 0.0909 µg/mL
- Kd [1]: 5.37 nM
- koff [1]: 0.00232 s⁻¹
- kon [1]: 432000 M⁻¹ s⁻¹
B9: 3H9-VH1-VL2 (antibody, human IgG1, kappa)
heavy: not shown
light: B3 light
notes: humanized IgG1

- EC50 (FGFR2b on KATO III cells): 0.437 µg/mL
- Kd [1]: 3.13 nM
- koff [1]: 0.000935 s⁻¹
- kon [1]: 299000 M⁻¹ s⁻¹
B10: 3H9-VH3-VL0 (antibody, human IgG1, kappa, V domains shown)
VH: B1 VH with T30S, R38K
VL: B1 VL with S43A, Y71F
notes: humanized IgG1

- EC50 (FGFR2b on KATO III cells): 0.215 µg/mL
- Kd [1]: 5.05 nM
- koff [1]: 0.00254 s⁻¹
- kon [1]: 503000 M⁻¹ s⁻¹
B11: 3H9-VH1-VL3 (antibody, human IgG1, kappa)
heavy: not shown
light: B3 light with V104L
notes: humanized IgG1

- EC50 (FGFR2b on KATO III cells): 0.357 µg/mL
- Kd [1]: 0.614 nM
- koff [1]: 0.000324 s⁻¹
- kon [1]: 527000 M⁻¹ s⁻¹
B12: 3H9-VH3-VL1 (antibody, human IgG1, kappa, V domains shown)
VH: B1 VH with T30S, R38K
VL: B1 VL
notes: humanized IgG1

- EC50 (FGFR2b on KATO III cells): 0.469 µg/mL
- Kd [1]: 5.09 nM
- koff [1]: 0.00186 s⁻¹
- kon [1]: 366000 M⁻¹ s⁻¹
B13: 3H9-VH0-VL3 (antibody, human IgG1, kappa)
heavy: not shown
light: B3 light with V104L
notes: humanized IgG1

- EC50 (FGFR2b on KATO III cells): 0.212 µg/mL
- Kd [1]: 1.37 nM
- koff [1]: 0.000788 s⁻¹
- kon [1]: 575000 M⁻¹ s⁻¹
B14: 3H9-VH2-VL3 (antibody, human IgG1, kappa)
heavy: not shown
light: B3 light with V104L
notes: humanized IgG1

- EC50 (FGFR2b on KATO III cells): 0.336 µg/mL
- Kd [1]: 6.51 nM
- koff [1]: 0.00301 s⁻¹
- kon [1]: 463000 M⁻¹ s⁻¹
B15: 3H9-VH0-VL0 (antibody, human IgG1, kappa, V domains shown)
VH: B1 VH with I48M
VL: B1 VL with S43A, Y71F
notes: humanized IgG1

- EC50 (FGFR2b on KATO III cells): 0.309 µg/mL
- Kd [1]: 1.32 nM
- koff [1]: 0.000752 s⁻¹
- kon [1]: 570000 M⁻¹ s⁻¹
B16: 3H9-VH2-VL1 (antibody, human IgG1, kappa, V domains shown)
VH: B1 VH with T30S
VL: B1 VL
notes: humanized IgG1

- EC50 (FGFR2b on KATO III cells): 0.586 µg/mL
- Kd [1]: 1.52 nM
- koff [1]: 0.000424 s⁻¹
- kon [1]: 279000 M⁻¹ s⁻¹
B17: FR21 (antibody, human IgG1, kappa, V domains shown)
VH: QVQLVQSGAEVKKPGSSVKVSCKASGYIFTTYNVHWVRQAPGQGLEWIGSIYPDNGDTSYNQNFKGRATITADKSTSTAYMELSSLRSEDTAVYYCARGDFAYWGQGTLVTVSS
VL: DIQMTQSPSSLSASVGDRVTITCKASQGVSNDVAWYQQKPGKAPKLLIYSASYRYTGVPSRFSGSGSGTDFTFTISSLQPEDIATYYCQQHSTTPYTFGQGTKLEIKR
notes: also called positive control antibody FR21; positive monoclonal antibody FR21

- EC50 (FGFR2b on KATO III cells): 0.559 µg/mL
- Kd [1]: 2.03 nM
- koff [1]: 0.000884 s⁻¹
- kon [1]: 435000 M⁻¹ s⁻¹
B18: 3C7-VH2-VL2 (antibody, human IgG1, kappa, V domains shown)
VH: QVQLVQSGAEVKKPGASVKVSCKASGYIFRNYYIHWVRQAPGQGLEWMGAIYPDNGDTSYNQRFKVRATLTADTSTSTVYMELSSLRSEDTAVYYCARAFTYWGQGTTVTVSS
VL: DIQMTQSPSSLSASVGDRVTITCGASENIYGALNWYQRKPGKAPKLLIYGATNLADGVPSRFSGSGSGTDYTLTISSLQPEDFATYYCQNVLSTPYTFGGGTKLEIKR
notes: humanized IgG1

- EC50 (FGFR2b on KATO III cells): 0.601 µg/mL
- Kd [1]: 2.71 nM
- koff [1]: 0.00115 s⁻¹
- kon [1]: 425000 M⁻¹ s⁻¹
B19: 3C7-VH1-VL2 (antibody, human IgG1, kappa, V domains shown)
VH: B18 VH with R30T
VL: B18 VL
notes: humanized IgG1

- EC50 (FGFR2b on KATO III cells): 0.506 µg/mL
- Kd [1]: 3.24 nM
- koff [1]: 0.00131 s⁻¹
- kon [1]: 405000 M⁻¹ s⁻¹
B20: 3C7-VH1-VL1 (antibody, human IgG1, kappa, V domains shown)
VH: B18 VH with R30T
VL: B18 VL with R38Q, F83V, L104V
notes: humanized IgG1

- EC50 (FGFR2b on KATO III cells): 0.565 µg/mL
- Kd [1]: 3.04 nM
- koff [1]: 0.00122 s⁻¹
- kon [1]: 403000 M⁻¹ s⁻¹
B21: 3C7-VH1-VL3 (antibody, human IgG1, kappa, V domains shown)
VH: B18 VH with R30T
VL: B18 VL with A43S, F83V
notes: humanized IgG1

- EC50 (FGFR2b on KATO III cells): 0.384 µg/mL
- Kd [1]: 10.4 nM
- koff [1]: 0.00305 s⁻¹
- kon [1]: 293000 M⁻¹ s⁻¹
B22: 3C7-VH0-VL0 (antibody, human IgG1, kappa, V domains shown)
VH: B18 VH with I28T, R30T
VL: B18 VL with G24R, R38Q, Y71F, L104V
notes: humanized IgG1

- EC50 (FGFR2b on KATO III cells): 0.396 µg/mL
- Kd [1]: 1.89 nM
- koff [1]: 0.000955 s⁻¹
- kon [1]: 504000 M⁻¹ s⁻¹
B23: 3C7-VH1-VL0 (antibody, human IgG1, kappa, V domains shown)
VH: B18 VH with R30T
VL: B18 VL with G24R, R38Q, Y71F, L104V
notes: humanized IgG1

- EC50 (FGFR2b on KATO III cells): 0.64 µg/mL
- Kd [1]: 14 nM
- koff [1]: 0.00315 s⁻¹
- kon [1]: 224000 M⁻¹ s⁻¹
B24: 3C7-VH0-VL1 (antibody, human IgG1, kappa, V domains shown)
VH: B18 VH with I28T, R30T
VL: B18 VL with R38Q, F83V, L104V
notes: humanized IgG1

- EC50 (FGFR2b on KATO III cells): 0.443 µg/mL
- Kd [1]: 13.6 nM
- koff [1]: 0.00323 s⁻¹
- kon [1]: 238000 M⁻¹ s⁻¹
B25: 3C7-VH0-VL3 (antibody, human IgG1, kappa, V domains shown)
VH: B18 VH with I28T, R30T
VL: B18 VL with A43S, F83V
notes: humanized IgG1

- EC50 (FGFR2b on KATO III cells): 0.436 µg/mL
- Kd [1]: 1.63 nM
- koff [1]: 0.000829 s⁻¹
- kon [1]: 509000 M⁻¹ s⁻¹
B26: 3C7-VH2-VL0 (antibody, human IgG1, kappa, V domains shown)
VH: B18 VH
VL: B18 VL with G24R, R38Q, Y71F, L104V
notes: humanized IgG1

- EC50 (FGFR2b on KATO III cells): 0.528 µg/mL
- Kd [1]: 11.6 nM
- koff [1]: 0.00313 s⁻¹
- kon [1]: 269000 M⁻¹ s⁻¹
B27: 3C7-VH0-VL2 (antibody, human IgG1, kappa, V domains shown)
VH: B18 VH with I28T, R30T
VL: B18 VL
notes: humanized IgG1
